The results in this text go back to patent US8632989B1, “Mutant insulin degrading enzyme and methods of use” (University of Kentucky Research Foundation, priority 2011, dated 2014).

Residue numbers refer to the chain shown, from its start. Names may count otherwise. Like-named read-outs stand apart in the source and are kept apart here.

The target of data set [1] is T1, Abz-GGFLRKHGQ-EDDnp.
T1 chain: GGFLRKHGQ

The target of data set [2] is bradykinin, P01042.
Data set [3] concerns Abz-GGFLRKHGQ-EDDnp. Description: Enzyme activity assay, kinetics of IDE and ATP binding site mutants with fluorogenic substrate. The format is biochemical. The settings on record: Abz-GGFLRKHGQ-EDDnp as substrate. The protocol:
Reactions were conducted in 50 mM Tris-HCl, pH 7.4.
(§1) IDE activity was determined by measuring the increase in fluorescence that occurs when the enzyme cleaves the internally quenched fluorogenic substrate Abz-[…]-EDDnp (SEQ ID NO:3) at the R—K bond (Song et al., Journal of Biologial Chemistry 276, 1152-1155 (2001)). The reaction was followed on a SpectraMax Gemini XS fluorescence plate reader using an excitation and emission wavelengths of 318 nm and 419 nm, respectively. Initial velocities were determined using SoftMax Pro 4.0 and kinetic constants calculated using GraphPad Prism 4.0. ATPase activity was measured by following Pi release with acid-molybdate as described by Harder et al. (Harder et al., Biochemical Journal 298 (Pt 2), 395-401 (1994)).

Data set [4] is described as follows: TNP-ATP fluorescence measurements, IDE and ATP binding site mutants. To be noted: 1.5 μM enzyme, 10 μM TNP-ATP, λexc=403 nm. The protocol:
Fluorescence emission spectra were recorded on a Perkin-Elmer LS 55 Luminescence spectrometer with 1.5 μM of IDE, IDE^R429S or IDE^K898A,K899A,S901A in 50 mM Tris-HCl, pH 7.4 with 10 μM TNP-ATP. Fluorescence spectra were recorded with a λexc=403 nm.
TNP-ATP [2′,3′-O-(2,4,6-Trinitrophenyl)adenosine-5′-triphosphate] fluorescence was monitored at excitation and emission wavelengths of 403 nm and 547 nm, respectively, using a Perkin-Elmer LS55 Luminescence Spectrometer at 20±0.1° C. TNP-ATP (Molecular Probes, Inc.) as supplied was diluted to 4 mM with 50 mM Tris-HCl, pH 7.4, and added to achieve the indicated concentrations.

Data set [5] relates to Abz-GGFLRKHGQ-EDDnp. Description: Activation by ATP of Abz-[…]-EDDnp hydrolysis, IDE and ATP binding site mutants. The data set is classed as biochemical. To be noted: 10 μM Abz-GGFLRKHGQ-EDDnp as substrate. How it is done:
Activity was determined in 50 mM Tris-HCl, pH 7.4 with 10 μM Abz-[…]-EDDnp (SEQ ID NO:3) as substrate at the indicated concentrations of ATP (panel A), PPPi (panel B) or, TNP-ATP (panel C). Each reaction contained 0.5 μg of enzyme.
as §1

Data set [6] is described as follows: Fluorescence measurements of TNP-ATP binding, wild type rIDE and distal site mutants. The settings on record: hyperbolic one site binding fit, 20 °C. The protocol:
The fluorescence increase on binding of (2,4,6-trinitrophenyl)ATP (TNP-ATP) is plotted for the indicated IDE constructs as a function of ligand concentration. Data were fit to a hyperbolic one site binding mechanism.
Fluorescence emission spectra of 10 μM TNP-ATP in […] Tris-HCl, pH7.4, was measured in the presence of 1.5 μM of each wild type IDE and the indicated IDE distal mutants. Fluorescence spectra were recorded with a λexc=403 nm on a Perkin-Elmer LS55 Luminescence Spectrometer.
Fluorescence measurements of TNP-ATP binding were performed on a Perkin-Elmer LS55 Luminescence Spectrometer. Titrations were monitored at an excitation wavelength of 403 nm and emission wavelength of 547 nm. The temperature of the sample was maintained at 20±0.1° C. by circulating thermostatically controlled water through the cuvette holder. Assays were conducted in 200 μL reaction mixtures containing 50 mM Tris-HCl, pH, 7.4, 10 μM Abz-[…]-EDDnp (SEQ ID NO:3) as substrate, and 0.5 μg wild type rIDE, 2.3 μg rIDE-V3605, 2.0 μg rIDE-I3745 or 1.62 μg rIDEY609F and the indicated concentration of ATP. The fluorescence of TNP-ATP was subtracted from the total fluorescence of enzyme+TNP-ATP to yield specific fluorescence enhancement (ΔF).

For data set [7], the system named is Abz-GGFLRKHGQ-EDDnp. Description: Enzyme activity assay, kinetics of wild type rIDE and distal site mutants with fluorogenic substrate. The format is biochemical. To be noted: rat IDE, Abz-GGFLRKHGQ-EDDnp as substrate; for Vmax: 50 mM Tris-HCl, pH 7.4. The protocol:
(§2) FIG. 17. Effects of distal site mutations. (A) Comparison of the kinetics of wild type IDE with the distal site mutants. Activity was measured with varying amounts of Abz-[…]-EDDnp (SEQ ID NO:3) substrate as indicated. Either hyperbolic (Michaelis-Menten equation) or sigmoidal curves (Hill equation) were fit to the data. (B) Effect of bradykinin on the activity of wild type IDE and the distal site mutants. (C) Activation of wild type IDE and distal site mutants by ATP. Relative activity is the fold activation above the level of the wild type enzyme alone.
(§3) The activity of IDE was measured by following the increase in fluorescence upon hydrolysis at the L-R bond of the fluorogenic peptide Abz-[…]-EDDnp (SEQ ID NO:3) on a SpectraMax Gemini XS fluorescence plate reader using an excitation wavelength of 318 nm and emission wavelength of 419 nm. Reactions were carried out in 200 μl volumes containing 50 mM Tris-HCl, pH 7.4, 1.92 μg of wild type rIDE, 4.6 μg of rIDE-V360S, 4.3 μg rIDE-I374S, or 1.63 μg of rIDE-Y609F. For measurements of activation by bradykinin, IDE activity was determined with 10 μM Abz-[…]-EDDnp (SEQ ID NO:3) as substrate in 50 mM Tris-HCl buffer, pH 7.4. The amount of protein was 0.5 μg for wild type rIDE and 5 μg for each of the IDE distal-site mutants. Data were analyzed using Softmax 4.0 (Molecular Devices) and kinetic parameters calculated with Prism (Graphpad Software). […] Under these assay conditions, both wild type and mutant rIDE are almost completely dimeric.

Data set [8] concerns Abz-GGFLRKHGQ-EDDnp. Description: Activation by ATP, wild type rIDE and distal site mutants. The format is biochemical. To be noted: 10 μM Abz-GGFLRKHGQ-EDDnp as substrate. How it is done: as §2, §3
Fluorescence measurements of TNP-ATP binding were performed on a Perkin-Elmer LS55 Luminescence Spectrometer. Titrations were monitored at an excitation wavelength of 403 nm and emission wavelength of 547 nm. The temperature of the sample was maintained at 20±0.1° C. by circulating thermostatically controlled water through the cuvette holder. […] The fluorescence of TNP-ATP was subtracted from the total fluorescence of enzyme+TNP-ATP to yield specific fluorescence enhancement (ΔF).

Sequence of bradykinin, P01042 (P01042 whole entry, looked up): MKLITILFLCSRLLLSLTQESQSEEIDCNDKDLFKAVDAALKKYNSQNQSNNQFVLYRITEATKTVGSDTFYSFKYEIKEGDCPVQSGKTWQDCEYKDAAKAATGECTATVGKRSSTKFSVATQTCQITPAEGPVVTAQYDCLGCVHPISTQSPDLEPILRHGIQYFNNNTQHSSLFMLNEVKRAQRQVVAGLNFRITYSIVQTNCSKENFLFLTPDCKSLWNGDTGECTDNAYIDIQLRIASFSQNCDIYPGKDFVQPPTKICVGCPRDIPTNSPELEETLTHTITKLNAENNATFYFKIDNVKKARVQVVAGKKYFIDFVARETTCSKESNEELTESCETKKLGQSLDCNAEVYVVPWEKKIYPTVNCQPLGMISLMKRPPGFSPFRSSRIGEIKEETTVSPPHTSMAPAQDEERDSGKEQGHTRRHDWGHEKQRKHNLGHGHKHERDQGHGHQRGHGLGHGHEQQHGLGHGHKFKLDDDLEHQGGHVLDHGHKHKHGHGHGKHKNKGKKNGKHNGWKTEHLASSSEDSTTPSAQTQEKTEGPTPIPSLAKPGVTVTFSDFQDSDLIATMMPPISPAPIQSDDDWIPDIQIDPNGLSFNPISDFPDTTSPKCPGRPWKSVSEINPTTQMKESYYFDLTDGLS

B1: rIDE-I374S (protein)
chain: MNNPAIQRIEDHIVKSPEDKREYRGLELANGIKVLLISDPTTDKSSAALDVHIGSLSDPPNIPGLSHFCEHMLFLGTKKYPKENEYSQFLSEHAGSSNAFTSGEHTNYYFDVSHEHLEGALDRFAQFFLCPLFDASCKDREVNAVDSEHEKNVMNDAWRLFQLEKATGNPKHPFSKFGTGNKYTLETRPNQEGIDVREELLKFHSTYYSSNLMAICVLGRESLDDLTNLVVKLFSEVENKNVPLPEFPEHPFQEEHLKQLYKIVPIKDIRNLYVTFPIPDLQQYYKSNPGHYLGHLIGHEGPGSLLSELKSKGWVNTLVGGQKEGARGFMFFSINVDLTEEGLLHVEDIILHMFQYIQKLRAEGPQEWVFQECKDLNAVAFRFKDKERPRGYTSKIAGKLHYYPLNGVLTAEYLLEEFRPDLIDMVLDKLRPENVRVAIVSKSFEGKTDRTEQWYGTQYKQEAIPEDVIQKWQNADLNGKFKLPTKNEFIPTNFEILALEKDATPYPALIKDTAMSKLWFKQDDKFFLPKACLNFEFFSPFAYVDPLHCNMAYLYLELLKDSLNEYAYAAELAGLSYDLQNTIYGMYLSVKGYNDKQPILLKKITEKMATFEIDKKRFEIIKEAYMRSLNNFRAEQPHQHAMYYLRLLMTEVAWTKDELKEALDDVTLPRLKAFIPQLLSRLHIEALLHGNITKQAALGVMQMVEDTLIEHAHTKPLLPSQLVRYREVQLPDRGWFVYQRRNEVHNNCGIEIYYQTDMQSTSENMFLELFCQIISEPCFNTLRTKEQLGYIVFSGPRRANGIQGLRFIIQSEKPPHYLESRVEAFLITMEKAIEDMTEEAFQKHIQALAIRRLDKPKKLSAECAKYWGEIISQQYNYDRDNIEVAYLKTLSKDDIIKFYKEMLAVDAPRRHKVSVHVLAREMDSCPVVGEFPSQNDINLSEAPPLPQPEVIHNMTEFKRGLPLFPLVKPHINFMAAKL
Consider B1, for which, in data set [1], the Hill coefficient came to 1.12, the Km worked out at 8.5 µM and the Vmax was determined as 3.45 nmol/min/mg. In addition, the “Heterotropic activation of Abz-GGFLRKHGQ-EDDnp hydrolysis” value in data set [2] is “is also lost in all three mutants”.

B2: IDE^R429S: Rat IDE residues 41-1019 bearing the mutation R429S; ATP binding site mutant (protein, listed as Rattus norvegicus)
chain: MRNGLVWLLHPALPSTLHSILGARPPPVKRLCGFPKQIYSTMNNPAIQRIEDHIVKSPEDKREYRGLELANGIKVLLISDPTTDKSSAALDVHIGSLSDPPNIPGLSHFCEHMLFLGTKKYPKENEYSQFLSEHAGSSNAFTSGEHTNYYFDVSHEHLEGALDRFAQFFLCPLFDASCKDREVNAVDSEHEKNVMNDAWRLFQLEKATGNPKHPFSKFGTGNKYTLETRPNQEGIDVREELLKFHSTYYSSNLMAICVLGRESLDDLTNLVVKLFSEVENKNVPLPEFPEHPFQEEHLKQLYKIVPIKDIRNLYVTFPIPDLQQYYKSNPGHYLGHLIGHEGPGSLLSELKSKGWVNTLVGGQKEGARGFMFFIINVDLTEEGLLHVEDIILHMFQYIQKLRAEGPQEWVFQECKDLNAVAFRFKDKESPRGYTSKIAGKLHYYPLNGVLTAEYLLEEFRPDLIDMVLDKLRPENVRVAIVSKSFEGKTDRTEQWYGTQYKQEAIPEDVIQKWQNADLNGKFKLPTKNEFIPTNFEILALEKDATPYPALIKDTAMSKLWFKQDDKFFLPKACLNFEFFSPFAYVDPLHCNMAYLYLELLKDSLNEYAYAAELAGLSYDLQNTIYGMYLSVKGYNDKQPILLKKITEKMATFEIDKKRFEIIKEAYMRSLNNFRAEQPHQHAMYYLRLLMTEVAWTKDELKEALDDVTLPRLKAFIPQLLSRLHIEALLHGNITKQAALGVMQMVEDTLIEHAHTKPLLPSQLVRYREVQLPDRGWFVYQRRNEVHNNCGIEIYYQTDMQSTSENMFLELFCQIISEPCFNTLRTKEQLGYIVFSGPRRANGIQGLRFIIQSEKPPHYLESRVEAFLITMEKAIEDMTEEAFQKHIQALAIRRLDKPKKLSAECAKYWGEIISQQYNYDRDNIEVAYLKTLSKDDIIKFYKEMLAVDAPRRHKVSVHVLAREMDSCPVVGEFPSQNDINLSEAPPLPQPEVIHNMTEFKRGLPLFPLVKPHINFMAAKL
modifications: wild-type Insulin Degrading Enzyme (IDE) from rat
As to B2, the “kcat relative to wild-type IDE” value in data set [3] is “essentially the same”. Moreover, in data set [3] (rat IDE), the “Hill coefficient” value came to 1.7 ± 0.2, the Km is 21300 ± 2400 µM and the kcat worked out at 0.0783 ± 0.005 s⁻¹. Moreover, the Vmax in data set [3] (rat IDE, 50 mM Tris-HCl, pH 7.4) was found to be 42.3 ± 3.2 nmol/min/mg. The “fluorescence associated with TNP-ATP binding, relative to wild type IDE” value in data set [4] is listed as “lower fluorescent yield”. Moreover, the “level of activation by ATP, of the wild type value” in data set [5] was “about 15%”.

B3: I374S: Rat IDE distal site mutant I374S (protein, UniProt P35559 1-1019, looked up, variant I374S)
Insulin-degrading enzyme: B2 chain with I374S, S429R
As to B3, the Kd in data set [6] worked out at 2100 ± 500 nM. In data set [7], the Hill coefficient was 1.12, the Km stood at 8.5 ± 1.74 µM and the Vmax is on record as 3.45 ± 0.22 nmol/min/mg. The molecule also showed a Hill coefficient in data set [7] (listed as Ile374Ser) of 1.12 ± 0.2. Also, the ATP activation result in data set [8] is on record as “not significant”.

B4: V360S: Rat IDE distal site mutant V360S (protein, UniProt P35559 1-1019, looked up, variant V360S)
Insulin-degrading enzyme: B2 chain with V360S, S429R
As for B4, binding in data set [6] was put at a Kd of 3700 ± 800 nM. In data set [7], the Hill coefficient was determined as 1.07, the Km was 8.61 ± 0.81 µM and the Vmax came to 2.01 ± 0.08 nmol/min/mg. This molecule had a Hill coefficient in data set [7] (listed as Val360Ser) of 1.07 ± 0.30. The same molecule displayed an ATP activation in data set [8] of 8 fold.

B5: Y609F: Rat IDE distal site mutant Y609F (protein, UniProt P35559 1-1019, looked up, variant Y609F)
Insulin-degrading enzyme: B2 chain with S429R, Y609F
For the molecule B5, the dissociation constant Kd in data set [6] was determined as 2000 ± 300 nM. Further, in data set [7], the Hill coefficient amounted to 1.04, the Km turned out to be 6.86 ± 1.18 µM and the Vmax is reported as 2.6 ± 0.56 nmol/min/mg. Besides, the Hill coefficient in data set [7] (listed as Tyr609Phe) came out at 1.04 ± 0.14. Also, the ATP activation entry in data set [8] was “not significant”.

The term Hill coefficient denotes a measure of the steepness of the concentration-response curve. One may read the Km as the substrate concentration at which the rate is half of its maximum. As a reminder, the Vmax is the top rate of the reaction or transport when substrate is in excess. By kcat is commonly meant the maximal rate divided by the concentration of active sites. Broadly, the Kd is the equilibrium constant for the complex coming apart. Low readings indicate a tighter complex, high ones a looser complex.
